# B1: RUCILP2: 87 amino acid irisin-like polypeptide cleaved from the Ruminococcus torques FNDC5-like protein RUMTOR_00181; recombinant, 6-His-tagged from E. coli (protein)
# chain: APVDVKVSEITETSAKASWKNAADGKEAAGYNVYVDGVKLNKELLTEASCGLTNLKAETTYFVEVTAVDAAGNESVKSEKVTFKTLK
# modifications: 6-His tag; Ruminococcus torques
# notes: 87 amino acid irisin-like polypeptide cleaved from the Ruminococcus torques FNDC5-like protein RUMTOR_00181; recombinant, 6-His-tagged from E. coli
# How the values were obtained:
# HepG2 cell line = assay: Gluconeogenesis gene expression in HepG2 cells; assay type: cell-based; settings: HepG2, q-PCR
# Experimental: FIG. 13. […] The cells were treated with various doses of RUCILP2, and cells were collected for q-PCR quantification on indicated genes. For integrin inhibitor treatment, cells were treated with 10 uM of cRGDyK (Selleckchem, #S7844) for 10 minutes and washed with PBS before treated with RUCILP2. Data are presented as mean+/−SEM of one representative experiment done in technical triplicate. Statistical significance was determined by unpaired two-tailed Student's t-test. *, p<0.05 vs 0 nM RUCILP2.
# HepG2 cells were seeded on 12-well plates under DMEM/F-12 medium (Dulbecco's Modified Eagle Medium/Nutrient Mixture F-12, Fisher Scientific, #11524436), supplemented with 10% FBS (Fetal Bovine Serum, Fisher Scientific, #11550356) and 1% Penicillin-Streptomycin (Fisher Scientific, #11548876). Cell cultures were maintained in a humidified chamber with 5% C02 at 37° C., and culture media were changed every 2-3 days.
# At 70% confluence, to induce insulin resistance, HepG2 cells were incubated with 18 mM glucosamine (GlcN) for 18 h in serum-free medium, followed by treatment with recombinant RUCILP2 or commercial recombinant irisin (Sigma, #SRP8039-10UG and Phoenix pharmaceuticals, #067-29A), or saline for 24 h. […]
# [1] = tested on: murine inguinal white adipocytes; assay: Thermogenesis gene expression in murine inguinal adipocytes (q-PCR); assay type: cell-based, mouse; settings: murine inguinal white adipocytes from stromal vascular fraction, treated 4 days
# Experimental: FIG. 9. Exposure of recombinant RUCILP2 to human visceral white pre-adipocytes or murine inguinal white adipocytes causes up-regulation of the expression of genes involved in thermogenesis/browning. Upper panel: mRNA expression level of adipocyte differentiation marker genes including Ucp1, Pparγ1, Dio2, and Cox2 and brown adipocyte-selective genes including Cpt1b and Ebf2 on human white preadipocytes (HWP). Human white preadipocytes were cultured until 80% confluent and switched into differentiation media (with 0.3 ml/ml fetal calf serum, 8 ug/ml d-biotin, 0.5 ug/ml insulin, 400 ng/ml dexamethasone). The differentiation process to mature adipocytes was completed after 12-14 days. The treatment of RUCILP2 started from the third day of differentiation. Cells were harvested after 14 days of differentiation and the gene expressions were quantified by q-PCR. […] Statistical significance was determined by unpaired two-tailed Student's t test. *, p<0.05 vs 0 nM RUCILP2.
# FIG. 28. […] Cells were harvested after 14 days of differentiation and the indicated genes were quantified by q-PCR. […] Cells were harvested after 6 days of differentiation and thermogenesis gene were quantified by q-PCR. […] Cells were harvested after 4 days of differentiation and expression of myogenesis genes were quantified by q-PCR. […] Statistical significance was determined by unpaired two-tailed Student's t test, *, p<0.05 […]
molecule,measurement,setting,value
B1,expression of genes involved in gluconeogenesis,HepG2 cell line,reduces expression
same,expression of genes involved in thermogenesis/browning,[1],up-regulation

# Source: US20240336661A1, “PEPTIDES DERIVED FROM RUMINOCOCCUS TORQUES” (University of Copenhagen, priority 2021, published 2024)
